A short description of this series: yeast display, Sf9 membrane polyspecificity reagent, FACS + sequencing; frameworks hold sequencing errors. Summed up:
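Sorting gates, low and high (top ~1%), were placed on anti-HA fluorescence to track expression and on streptavidin fluorescence to track reagent binding. A clone's polyreactivity label is taken from the gate it came out of. The reagent was 10% biotinylated, detergent-solubilized Sf9 membrane, applied for 1 hour at 4 °C to galactose-induced yeast display cells.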
On to “QVQLVESGGGLVQAGGSLRLSCAASGSIFYPYAMGWYRQAPGKERELVAAITSSTGSTYYADSVKGRFTISRDHAKNTVYLQMNSLKPEDTAVYYCAAAGYWSYFMMDYWGQGTQVTVSS”, for which the “polyreactivity (PSR sort gate)” value is “low polyreactivity”. Next, “QVQLVESGGGLVQAGGSLRLSCAASGSIFYPYAMGWYRQAPGKERELVATISWSGSSTYYADSVKGRVTISRDNAKNTVYSQMNSLKPEDTAVYYCAVRYSVLSNYRYYYWGQGTQVTVSS”: “low polyreactivity”; “QVQLVESGGGLVQAGGSLRLSCAASGSIFYPYDMGWYRQAPGKERELVATINWSSGRTNYADSVKGRFTISRDNAKNTVYLQMNSLKPEDTAVYYCNAVTYSRRYAYYYWGQATQVTVSS”: “high polyreactivity”; “QVQLVESGGGLVQAGGSLRLSCAASGSIFYPYGMGWYRQAPGKEREFVAAISWSGGTTYYADSVKGRFTISRDNAKNTVYLQMNSLKKEDTGVYYCAAVSFYGVGGTWYNYWGKGTQVTVSS”: “high polyreactivity”.

On to “QVQLVESGGGLVQAGGSLRLSCAASGSIFYPYVMGRYRQAPGKEREFVAAITTSGGTTYYADSVKGRFTISLDNAKNTVYLKMNSLKPEDTAVYDCAARGTVPGWAIYDYWGQGTEVTVSS”, for which the “polyreactivity (PSR sort gate)” value is “low polyreactivity”.

“QVQLVESGGGLVQAGGSLRLSCAASGSIFYPYVMGWYRQAPGKERELVAAITTSVGSTYYADSVKGRFTISRDNAKNTVYLQMNSLKPEDTAVYYCAAKYFGSRRPGRYNYWGQGTQVTVSS”: the “polyreactivity (PSR sort gate)” value is “high polyreactivity”.

Regarding “QVQLVESGGGLVQAGGSLRLSCAASGSIFYQNAMGWYRQAPGKERELVAAITSDGSTYYADSVKGRFTISRDNAKNTVYLQMNSLKPEDTAVYYCAAEYYGHRYDYWGQGTQVTVSS”, the “polyreactivity (PSR sort gate)” value is “low polyreactivity”. With “QVQLVESGGGLVQAGGSLRLSCAASGSIFYRNAMGWYRQAPGKERELDAAIDSGDSTNYADSVKGRFTISRDNAKNTVYLQMNSLKPEDTAVYYCAARVIYYYGSGPYDYWGQGTQVTVSS”, the “polyreactivity (PSR sort gate)” value is recorded as “low polyreactivity”. Regarding “QVQLVESGGGLVQAGGSLRLSCAASGSIFYRNAMGWYRQAPGKERELVAAISGRGGSTNYADSVKGRFTISRDNAKNTVYLQMNSLKPEDTAVYYCNRYGVSNILVRGGYWGQGTQVTVSS”, the “polyreactivity (PSR sort gate)” value is “high polyreactivity”. The same measure for “QVQLVESGGGLVQAGGSLRLSCAASGSIFYRNAMGWYRQAPGKERELVAAISWSGASTYYADSVKGRFTISRDNAKNTVFLQLNSLKPEDTAVYYCATDDFWNVKFYAYYPEFDYWGQGTQVTVSS”: “low polyreactivity”; for “QVQLVESGGGLVQAGGSLRLSCAASGSIFYRNAMGWYRQAPGKERELVAGITTRGGSTYYADSVKGRFTISRDNAKNTVYLQMNSLKPEDTAVYYCNKYYYYRDSGYWGQGTQVTVSS”: “high polyreactivity”.

Turning to “QVQLVESGGGLVQAGGSLRLSCAASGSIFYRNAMGWYRQAPGKERELVASISASGGRTYYADSVKGRLTISRDNAKNTVYFQMYSLNREETAFYYCNKVSPVAYWYSWGINFDFWGQGTQVTVSS”, the “polyreactivity (PSR sort gate)” value is recorded as “high polyreactivity”. In the case of “QVQLVESGGGLVQAGGSLRLSCAASGSIFYRNAMGWYRQAPGKERELVASISSSAGRTYYADSVKGRFTISRDNAKNTVYLQMNSLKPEDTAVYYCAVTSYRQRGAFDYWGQGTQVTVSS”, the “polyreactivity (PSR sort gate)” value is “high polyreactivity”.

As for “QVQLVESGGGLVQAGGSLRLSCAASGSIFYRNAMGWYRQAPGKERELVASITSGGRTNYADSVKGRFTISRDNAKNTVYLQMNSLKPEDTAVYYCARGRASYTKSGPTPYTGYGYWGQGTQVTVSS”, the “polyreactivity (PSR sort gate)” value is reported as “low polyreactivity”. The same measure for “QVQLVESGGGLVQAGGSLRLSCAASGSIFYRNVMGWYRQAPGKERELVAAISWSGGSTYYADSVKGRFTISRDNAKNTVYLQMNSLKPEDTAVYYCAADIPKTGYPYAFEYWGQGTQVTVSS”: “low polyreactivity”; for “QVQLVESGGGLVQAGGSLRLSCAASGSIFYRNVMGWYRQAPGKERELVAAITGSGGITYYADSVKGRFTISRDNAKNTVYLQMNSLKPEDTAVYYCNKTSFLVKLDYWGQGTQVTVSS”: “low polyreactivity”; for “QVQLVESGGGLVQAGGSLRLSCAASGSIFYRYAMGWYRQAPGKERELVAAIRSRTGRTYYADSVKGRFTITRDNAKNTVYLQMNSLKQEDTAVYYCAADKYFSARFDYWGQGTQVTVSS”: “high polyreactivity”. Next, “QVQLVESGGGLVQAGGSLRLSCAASGSIFYRYAMGWYRQAPGKERELVAAISSNGVSTYYADSVKGRFTISRDNAKNTVYLQMNSLKPEDTAVYCCARDVYASPRLYTSRYNYWGQGTQVTVSS”: “low polyreactivity”; “QVQLVESGGGLVQAGGSLRLSCAASGSIFYRYAMGWYRQAPGKERELVAAISSNGVSTYYADSVKGRFTISRDNAKNTVYLQMTSLNPEDTAVYYCARDVYASPRLYTSRYNYWGQGTQVTVSS”: “low polyreactivity”; “QVQLVESGGGLVQAGGSLRLSCAASGSIFYRYAMGWYRQAPGKERELVSSISSGVSTNYADYVKGRFTISRDNAKNTVYLQINSLKREDTAVYYWAAYYRGWSSSYWFPAYNYWGQGTQVTVSS”: “low polyreactivity”. The same measure for “QVQLVESGGGLVQAGGSLRLSCAASGSIFYRYVMGWYRQAPGKERELVAAITSTGSTYYADSVKGRFTISRDNAKNTVYLQMNSLKPEDTAVYYCNTLYARPLRDSYGYWGQGTQVTVSS”: “high polyreactivity”; for “QVQLVESGGGLVQAGGSLRLSCAASGSIFYRYVMGWYRQAPGKERELVAVITGSGGNTYYADSVKGRFTISRDNAKNTVYLQMNSLKPEDTAVYYCAARYYTSQYGRHSRYPSEYWGQGTQVTVSS”: “high polyreactivity”; for “QVQLVESGGGLVQAGGSLRLSCAASGSIFYSNAMGWYRQAPGKERELVAAISFTGGTTYYADSVKGRFTISRDNAKNTVYLQMNSLKPEDTAVYYCNKLYHHYYGYWGQGTQVTVSS”: “high polyreactivity”. “QVQLVESGGGLVQAGGSLRLSCAASGSIFYSNAMGWYRQAPGKERELVADISWSDGSTYYADSVKGRFTISRDNAKNNVYLQMNSLKPEDTAVYYCARKAGYSYFRRYDYWGQGTQVTVSS”: the “polyreactivity (PSR sort gate)” value is “low polyreactivity”. Next, “QVQLVESGGGLVQAGGSLRLSCAASGSIFYSNAMGWYRQAPGKERELVATIRSGGTTYYADSVKGRFTISRDNAKNTVYLQMNSLKPEDTAVYYCANRYGVKYWGQGTQVTVSS”: “high polyreactivity”; “QVQLVESGGGLVQAGGSLRLSCAASGSIFYSNMGWYRPAPGKEREFVAAISGSGVRTYYADSVKGRFTISRDNAKKTVYLQMNSLKPEDTAVYYCNAGRRQDNRYNYWGQGTQVTVSS”: “high polyreactivity”; “QVQLVESGGGLVQAGGSLRLSCAASGSIFYSNMGWYRQAPGKEREFFAAISGSGVRTYYADSVKGRFTISRDNAKNTVYLQMNSLKPEDTAVYYCNAGRRQDFRYNYWGHGTQVTVSS”: “high polyreactivity”. The same measure for “QVQLVESGGGLVQAGGSLRLSCAASGSIFYSNVMGWYRQAPGKESELVAAITRGGGTNYADSVKGRFTISRDNAKNTVYLQMNSLKPEDTAVYYCNRDPQKYRWIPRFDYWGQGTQVTVSS”: “low polyreactivity”; for “QVQLVESGGGLVQAGGSLRLSCAASGSIFYSYAMGWDRQAPGKERELVAAISRIGGTTYYADSVKGRFTISRDNAKNTVYLQMNSLKPEDTAVYYCAAGPLLPRYSQYGYWGQGTQVTVSS”: “low polyreactivity”; for “QVQLVESGGGLVQAGGSLRLSCAASGSIFYSYAMGWYRQAPGKERELVAAISSGGRTKYADSVKGRFTISRDNAKNTVYLQMNSLKPEDTAVYYCAASDRYGGRDYWGQGTQVTVSS”: “high polyreactivity”. Next, “QVQLVESGGGLVQAGGSLRLSCAASGSIFYSYAMGWYRQAPGKERELVAAISWDASTYYADSVKGRFTISRDNAKNTVYLQMNSLKPEDTAVSYCNADIPYYFVYDAYDYWGQGTQVTVSS”: “low polyreactivity”.

With “QVQLVESGGGLVQAGGSLRLSCAASGSIFYSYAMGWYRQAPGKERELVAAISYRGGSTYYADSVKGRFTISRDNAKNTVYLQMNSLKPEDTAVYYCAADARQSRYNYWGQGTQVTVSS”, the “polyreactivity (PSR sort gate)” value is “high polyreactivity”. Take “QVQLVESGGGLVQAGGSLRLSCAASGSIFYSYAMGWYRQAPGKERELVADITWYGGRTYYADSVKGRFTISRDNAKNTVYLQMNSLKPEDTAVYYCAADVYLYDYWGQGTQVTISS”: the “polyreactivity (PSR sort gate)” value is on record as “high polyreactivity”. Take “QVQLVESGGGLVQAGGSLRLSCAASGSIFYSYAMGWYRQAPGKERELVASISDGSSTYADSVKGRFTISRDNAKNTVYLQMNSLKPEDTAVYYCNADATDSYPEKDEHDSWGQGTQVTVSS”: the “polyreactivity (PSR sort gate)” value was “low polyreactivity”. Next, “QVQLVESGGGLVQAGGSLRLSCAASGSIFYSYAMGWYRQAPGKERELVATITRRGGSTYYADSVKGRFTISRDNAKNTVYLQMNSLKPEDTAVYYCAVKPVRYAYRIYDLRFEYWGQGTQVTVSS”: “high polyreactivity”; “QVQLVESGGGLVQAGGSLRLSCAASGSIFYSYDMGWYRQAPGKERELVAAIDWSGGSTYYADSVKGRFTISRDNAKNTVYLQMNSLKPEDTAVYYCAADDQVEGDYWGQGTQVTVSS”: “high polyreactivity”. Next, “QVQLVESGGGLVQAGGSLRLSCAASGSIFYTNAMGWYRQAPGKERELVAAIRWSGGRTYYADSVKGRFTISRDNAKNTVFLQMNSLKPEDTAVYYCNVVVRYQSAYDYWGQGTQVTVSS”: “high polyreactivity”. The same measure for “QVQLVESGGGLVQAGGSLRLSCAASGSIFYTNAMGWYRQAPGKERELVAAIRYSGVSTYYADSVKGRFTISRDNAKNTVYLQMNSLKPEDSAVYSCAARGHPFKKSYGSWGQGTQVTVSS”: “high polyreactivity”; for “QVQLVESGGGLVQAGGSLRLSCAASGSIFYTNAMGWYRQAPGKERELVAAITGGGRTNYADSLKGRFTISRDNAKNTVYLQMNSLKPEDNAVYYCAARTGYRYYTGDYWGQGTQVTVSS”: “high polyreactivity”. As for “QVQLVESGGGLVQAGGSLRLSCAASGSIFYTNAMGWYRQAPGKEREMVATITSSTGSTNYADSVKGRFTISRDNAKITVYLQMNSLKPEDTAVYYCAKRDGYWVYYQMDYWGQGTQVTVSS”, the “polyreactivity (PSR sort gate)” value was “low polyreactivity”. The same measure for “QVQLVESGGGLVQAGGSLRLSCAASGSIFYTYAMGWYRQAPGKERELVAAISRSGGSTYYADSVKGRFTISRDNAKNTVYLQMNSLKPEDTAVYYCAARPPYRVGIVPLGRREYYWGQGTQVTVSS”: “high polyreactivity”.

Values taken from the nanobody polyreactivity screen of Harvey et al. (2022).
